According to publication PMC12092789:

Target: RAD51 (UniProt Q06609)
Experiment: co-immunoprecipitation, Western blot
Settings: reference: wild-type NPM1, cisplatin; sites S260

## nucleophosmin 1 (NPM1) (from UniProt P06748) NPM1 S260A, cisplatin
  binding against the reference: stronger
